Source: article PMC6188894

The substances below were run against EXD (BiFC partner in HEK293 cells) (Drosophila) (UniProt P40427) (assay: split reporter (BiFC, NanoBiT); BiFC with split Venus (VC and VN fusions) in co-transfected HEK293 cells, read 48 h after transfection by confocal microscopy; percent = Venus-fluorescent cells in one hundred mCherry-positive cells, three independent experiments). Settings: not given.
Chain of UniProt P40427 (P40427 whole entry, the tested form may be a part): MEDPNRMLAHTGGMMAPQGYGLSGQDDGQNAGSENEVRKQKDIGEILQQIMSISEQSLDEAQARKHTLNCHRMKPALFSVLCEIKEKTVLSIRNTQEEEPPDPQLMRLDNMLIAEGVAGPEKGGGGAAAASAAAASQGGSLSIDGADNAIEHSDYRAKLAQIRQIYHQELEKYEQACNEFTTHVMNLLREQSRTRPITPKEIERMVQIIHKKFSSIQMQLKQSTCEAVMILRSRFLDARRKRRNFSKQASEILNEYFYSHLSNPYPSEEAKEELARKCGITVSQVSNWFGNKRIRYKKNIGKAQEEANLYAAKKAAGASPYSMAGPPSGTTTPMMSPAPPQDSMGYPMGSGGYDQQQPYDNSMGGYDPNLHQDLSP
For “VC-Antp^I32A-H36A (in HEK293 cells) (natural protein)”, the percent of transfected (mCherry-positive) cells with BiFC signal was 79%.

These substances were tested against VN-TFIIEβ (TFIIEβ fused to the N-terminal fragment of Venus, pCS2VNm9) (Drosophila) in the same assay as above. Settings: not given.
Chain of VN-TFIIEβ (TFIIEβ fused to the N-terminal fragment of Venus, pCS2VNm9) (Drosophila) (O96881 entry or part of it): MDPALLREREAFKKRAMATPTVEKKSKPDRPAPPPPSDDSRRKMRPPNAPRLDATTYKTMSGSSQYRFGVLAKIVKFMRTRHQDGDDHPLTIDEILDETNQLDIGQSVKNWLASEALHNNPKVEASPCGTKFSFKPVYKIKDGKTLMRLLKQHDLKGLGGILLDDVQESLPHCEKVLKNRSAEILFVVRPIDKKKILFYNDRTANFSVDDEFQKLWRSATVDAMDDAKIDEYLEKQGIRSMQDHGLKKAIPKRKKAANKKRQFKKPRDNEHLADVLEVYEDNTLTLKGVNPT
Substance “VC-Antp (wild-type Antennapedia fused to the C-terminal fragment of Venus, pCS2VC155) (from UniProt P02833 1-378) (natural protein)” has a percent of transfected (mCherry-positive) cells with BiFC signal of 78%.
In the case of “VC-AntpHD (Antp homeodomain construct fused to the C-terminal fragment of Venus, pCS2VC155) (domain or fragment)”, the percent of transfected (mCherry-positive) cells with BiFC signal is reported as 75%.
“VC-Antp^AAAA (Antp with the YPWM motif replaced with alanines) (from UniProt P02833 1-378) (natural protein)” gave a percent of transfected (mCherry-positive) cells with BiFC signal of 76%.
VC-Antp^I32L-H36R (natural protein) gave a percent of transfected (mCherry-positive) cells with BiFC signal of 13%.
“VC-AntpΔH1 (Antp with helix 1 of the HD deleted) (from UniProt P02833 1-378) (natural protein)” gave a percent of transfected (mCherry-positive) cells with BiFC signal of 74%.
In the case of “VC-AntpΔH1-2 (Antp with helices 1 and 2 of the HD deleted) (from UniProt P02833 1-378) (natural protein)”, the percent of transfected (mCherry-positive) cells with BiFC signal is reported as 15%.
“VC-AntpΔHD (Antp with the homeodomain deleted) (from UniProt P02833 1-378) (natural protein)” showed a percent of transfected (mCherry-positive) cells with BiFC signal of 26%.

Each substance was assayed against VN-TFIIEβ (TFIIEβ fused to the N-terminal fragment of Venus, pCS2VNm9) (assay: BiFC). Settings: cell culture; pCAG-Cherry co-transfected as a control.
“VC-Antp (wild-type Antennapedia fused to the C-terminal fragment of Venus, pCS2VC155) (from UniProt P02833) H36R” was tested, and the response was 32%.
“VC-Antp (wild-type Antennapedia fused to the C-terminal fragment of Venus, pCS2VC155) (from UniProt P02833) I32A” showed a response of 29%.
Work on “VC-Antp (wild-type Antennapedia fused to the C-terminal fragment of Venus, pCS2VC155) (from UniProt P02833) I32L” yielded a response of 31%.
